Data as given in patent US12459997B2, “Compounds and methods targeting interleukin-19” (Eli Lilly and Company, priority 2018, dated 2025).

What was measured:
[1] = biological target: T1, human IL-19 / human IL-20R beta Fc-fusion protein (Homo sapiens, UniProt Q9UHD0); assay: BLI in vitro neutralization: IL-19 captured by antibody, then incubated with IL-20R beta Fc; conditions: block of IL-19 binding to soluble receptor
T1 sequence (Q9UHD0 25-177): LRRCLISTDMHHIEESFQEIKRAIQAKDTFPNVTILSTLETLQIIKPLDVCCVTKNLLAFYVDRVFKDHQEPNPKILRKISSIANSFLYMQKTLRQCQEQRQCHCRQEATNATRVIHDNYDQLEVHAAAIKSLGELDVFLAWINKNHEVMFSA
From the text: Alternatively, a biophysical assay such as bio-layer interferometry (BLI) may be used for assessing neutralization of IL-19 by antibodies of the present invention. Binding between a ligand immobilized on the biosensor tip surface and an analyte in solution produces an increase in optical thickness at the biosensor tip, which results in a wavelength shift (expressed in nm). According to such assay, the IL-19 receptor (i.e., […]) is expressed in a membrane-free manner (such as with an Fc-fusion e.g. IL20Rbeta Fc chimera protein from R&D Systems catalog 1788-IR-050). […] The immobilized antibodies are then incubated with recombinant human IL-19 protein diluted to 100 nM using HBS-EP+ running buffer (GE Healthcare, 10 mM Hepes pH7.4+150 mM NaCl+3 mM EDTA+0.05% surfactant P20) for 240-300 secs. The human IL-19, after binding to the anti-IL-19 antibody, is assessed by incubation with human IL-20R beta Fc-fusion protein for 240-300 secs. The ability of the antibody to block or neutralize binding of the IL-19 ligand to the soluble receptor is observed as a minimal (<0.025 nm) increase in the wavelength during this step of the assay.

recombinant human IL-19 [2] = biological target: T2, recombinant human IL-19 (Homo sapiens, UniProt Q9UHD0); assay: HDX-MS epitope mapping; format: binding; conditions: IL-19:antibody molar ratio 1:1.2
T2 sequence (Q9UHD0 25-177): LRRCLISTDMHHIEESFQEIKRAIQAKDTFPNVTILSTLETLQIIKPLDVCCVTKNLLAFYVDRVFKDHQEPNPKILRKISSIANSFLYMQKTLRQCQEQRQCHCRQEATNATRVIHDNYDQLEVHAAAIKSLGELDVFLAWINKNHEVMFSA
Method: Briefly, HDX-MS is performed on a Waters nanoACQUITY system with HDX technology, including a LEAP HDX robotic liquid handling system and mass analysis is performed on a Waters Xevo G2-Tof mass spectrometer. […] The deuterium exchange experiment is initiated adding 55 uL of D2O buffer containing 0.1×PBS to 5 ul of human IL-19 or the human IL-19/antibody complex at 15° C. for various amounts of time (0 s, 10 s, 1 min, 10 min, 60 min, 120/240 min). The reaction is quenched using equal volume of was 0.32M TCEP, 0.1M phosphate pH 2.5 for two minutes at 1° C. 50 μL of the quenched reaction is injected on to an on-line pepsin column (Waters BEH Enzymate) at 14° C., using 0.2% formic acid in water as the mobile phase at a flow rate of 100 μL/min for 4 min. The resulting peptic peptides are then separated on a C18 column (Waters, Acquity UPLC BEH C18, 1.7 m, 1.0 mm×50 mm) fit with a Vanguard trap column using a 3 to 85% acetonitrile (containing 0.2% formic acid) gradient over 10 min at a flow rate of 50 L/min. The separated peptides are directed into a Waters Xevo G2 time-of-flight (qTOF) mass spectrometer. […] The relative deuterium incorporation for each peptide is determined by processing the MS data for deuterated samples along with the non-deuterated control in DynamX.

recombinant human IL-19 [3] = biological target: T2, recombinant human IL-19; assay: Bio-layer interferometry (BLI) binding kinetics and affinity (Octet Red96); conditions: 25° C.; 1:1 binding model
Method: Bio-layer interferometry (BLI) assay, measured with a Octet Red96® instrument available from ForteBio (using HBS-EP+ running buffer (GE Healthcare, 10 mM Hepes pH7.4+150 mM NaCl+3 mM EDTA+0.05% surfactant P20) at 25° C.), is used to measure binding of the exemplified IL-19 antibodies of the present invention to recombinant human IL-19 (having the amino acid sequence set for in SEQ ID NO: 1).
Except as noted, all reagents and materials are from ForteBio (Freemont, Calif.). An AMQ biosensor is used to immobilize antibody of interest for analysis. […] Recombinant human IL-19 is prepared to concentrations of 270, 90, 30, 10, 3.33, 1.11, 0.370, and 0 (blank) nM by dilution into running buffer. Each analysis consists of: (1) capturing antibody samples on biosensors for 300 secs; (2) establishing a baseline by incubating antibody loaded biosensors with running buffer for 60 secs; (3) incubating antibody loaded biosensors with serially diluted recombinant human IL-19 for 300 secs to monitor association phase; (4) return of biosensor to running buffer to monitor dissociation phase.
Binding data is processed using standard double-referencing and fit to a 1:1 binding model using Data Analysis v9.0 evaluation software, to determine the association rate (kon, M^−1 s^−1 units), dissociation rate (koff, s^−1 units), and Rmax (nm units). The equilibrium dissociation constant (KD) was calculated from the relationship KD=koff/kon, and is in molar units.

B1: R_39: rabbit-derived IL-19 antibody; LC SEQ ID NO: 310, HC SEQ ID NO: 311 (antibody)
heavy: QEQLKESGGGLVQPGGSLKLSCKASGFDLSSYGVSWVRQAPGKGLEWIGYIDPVFGSTYYANWVNGRFTISSDNAQNTLYLQLNSLTAADTATYFCARGSGYVYYGYTYDLWGPGTLVTVSSGQPKAPSVFPLAPCCGDTPSSTVTLGCLVKGYLPEPVTVTWNSGTLTNGVRTFPSVRQSSGLYSLSSVVSVTSSSQPVTCNVAHPATNTKVDKTVAPSTCSKPTCPPPELLGGPSVFIFPPKPKDTLMISRTPEVTCVVVDVSQDDPEVQFTWYINNEQVRTARPPLREQQFNSTIRVVSTLPIAHQDWLRGKEFKCKVHNKALPAPIEKTISKARGQPLEPKVYTMGPPREELSSRSVSLTCMINGFYPSDISVEWEKNGKAEDNYKTTPAVLDSDGSYFLYSKLSVPTSEWQRGDVFTCSVMHEALHNHYTQKSISRSPGK
light: DIVMTQTPASVEAAVGGTVTIKCQASQSIYRYLSWYQQKPGQRPKLLIYGASNLASGVSSRFKGSGSGTEFTLTISDLECADAATYYCQSYYYSSSSGYGNVFGGGTEVVVKGDPVAPTVLIFPPAADQVATGTVTIVCVANKYFPDVTVTWEVDGTTQTTGIENSKTPQNSADCTYNLSSTLTLTSTQYNSHKEYTCKVTQGTTSVVQSFNRGDC
B1 was tested, and the Neutralization [1] was “Yes (minimal (<0.025 nm) increase in the wavelength)”, the “residues of SEQ ID NO. 1 with decreased deuterium uptake in complex with antibody (epitope region)” value (recombinant human IL-19 [2]) was “residues 42-60 ([…]), 90-107 ([…]), and 149-160 ([…])” and the kon (recombinant human IL-19 [3]) was 206000 M⁻¹ s⁻¹.
